Assay [1] concerns the target dummy-Fc heavy chain constant region with CH3B of mutant EW-RVT (S-S) (Q347R/S354C/D399V/F405T) (human) [IgG part: P0DOX5]. The experiment in a line: non-reducing SDS-PAGE, EW-RVT (S-S) against EW-RVT.
Assay [2] addresses dummy-Fc heavy chain constant region with CH3B of mutant SW-WVT (S-S) (Y349C/E357W/D399V/F405T) (human) [IgG part: P0DOX5]. The experiment in a line: non-reducing SDS-PAGE, SW-WVT (S-S) against SW-WVT.

In turn, “hAY4a scFv-Fc heavy chain with CH3A of mutant EW-RVT (S-S) (Y349C/K360E/K409W) (from UniProt P0DOX5 227-449) (Fc fusion)” yielded a greater heterodimer formability than the variant without disulfide bridge in assay [1] of 3%.

Turning to “hAY4a scFv-Fc heavy chain with CH3A of mutant SW-WVT (S-S) (Y349S/S354C/K409W) (from UniProt P0DOX5 227-449) (Fc fusion)”, the greater heterodimer formability than the variant without disulfide bridge in assay [2] was determined as 9%.

Values taken from US20150307628A1.
